Target: T1, Zip2(499-704);Spo16 (Saccharomyces cerevisiae;Saccharomyces cerevisiae) (UniProt P53061+P17122)
T1 sequence 1: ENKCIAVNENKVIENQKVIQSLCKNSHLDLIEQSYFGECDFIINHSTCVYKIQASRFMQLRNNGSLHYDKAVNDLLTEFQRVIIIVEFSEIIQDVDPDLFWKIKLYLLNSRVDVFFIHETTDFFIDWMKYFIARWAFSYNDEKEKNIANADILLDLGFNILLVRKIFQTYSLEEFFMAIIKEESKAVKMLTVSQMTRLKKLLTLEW
T1 sequence 2: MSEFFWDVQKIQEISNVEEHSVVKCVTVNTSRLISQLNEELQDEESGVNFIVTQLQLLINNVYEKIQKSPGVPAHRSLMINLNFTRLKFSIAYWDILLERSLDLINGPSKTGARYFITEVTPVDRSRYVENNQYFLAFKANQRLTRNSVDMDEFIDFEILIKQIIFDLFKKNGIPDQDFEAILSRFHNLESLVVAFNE
Assay: EMSA

nicked Holliday Junction
Kd: 5 µM

— paper PMC6411835
